Where two headings read alike, the source gives them in different places.
Legend:
His662 [1] = target: T1, His662 (UniProt position 662, MKQVKHIPESK); conditions: cited from earlier work
His662 [2] = target: T1, His662; assay: NMR; conditions: 35 °C (default for NMR experiments; not restated for the titration), 50 mM NaCl, 20 mM Tris, 10 mM CHAPS, no CaCl2, formate and imidazole included as internal pH indicators, pH adjusted with 1 M HCl, Ca2+-free (apo), Ca2+-binding-deficient mutant, folded

Substance | pKa (His662 [1]; Ca2+-bound (holo) WT) | pKa (His662 [1]; Ca2+-free (apo) WT) | pKa (His662 [2])
LETM1 F-EF-hand domain, wild type (Homo sapiens) | ~6.28 | ~6.39 | –
LETM1 F-EF-hand domain D676A/N678A (AEA) mutant (Homo sapiens; D676A;N678A) | – | – | 6.58 ± 0.06
